± gives the standard deviation of the averaged measurements.
B1: library; a variant is named by its letters at N, in order (parent)
chain: GCUGUCACCGGAAUACCAGCAUCGUCUUGAUGCCCUUGGAAGUCCGGUCUGAUGAGUCCNNNNNGGACGAAACAGC

Legend:
theophylline [1] = variants of: B1; experiment: FACS-Seq fitted mean relative fluorescence mCherry/BFP without ligand (log10 relative fluorescence); higher = higher reporter protein expression; conditions: HEK293T, ligand present: no
Description: (§1)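 Hammerhead (sTRSV) ribozyme switch libraries with a ligand aptamer grafted on stem I and a randomized N4-6 loop II, cloned into the 3' UTR of mCherry and transiently transfected into HEK293T cells; RNA-Seq 72 h post transfection with ligand added 1 h before transfection; RNA read count / plasmid DNA read count normalized to the non-cleaving sTRSVctl (x100), log10; sequences with >100 DNA reads. FACS-Seq: lentiviral library sorted into 6 bins after 48 h ligand, log-normal fit mean of mCherry/BFP scaled to controls. Printed sequences are partial switch sequences.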

theophylline [2] = variants of: B1; experiment: normalized RNA/DNA level with ligand (relative to sTRSVctl = 100) (log10 (% of sTRSVctl)); higher = less ribozyme self-cleavage, higher mRNA level; conditions: ligand concentration (+) RNA-Seq: 5 mM, HEK293T, reporter: mCherry (pCS4076), ligand present: yes
Description: as §1

theophylline [3] = variants of: B1; experiment: normalized RNA/DNA level without ligand (relative to sTRSVctl = 100) (log10 (% of sTRSVctl)); higher = less ribozyme self-cleavage, higher mRNA level; conditions: HEK293T, reporter: mCherry (pCS4076), ligand present: no
Description: as §1

theophylline [4] = variants of: B1; experiment: FACS-Seq fitted mean relative fluorescence mCherry/BFP with ligand (log10 relative fluorescence); ligand concentration (+) FACS-Seq: 1 mM; higher = higher reporter protein expression; conditions: HEK293T, ligand present: yes
Description: as §1

| Variant | FACS-Seq fitted mean (log10) (theophylline [1]) | normalized RNA/DNA level with ligand (log10) (theophylline [2]) | normalized RNA/DNA level without ligand (log10) (theophylline [3]) | FACS-Seq fitted mean (log10) (theophylline [4]) |
| --- | --- | --- | --- | --- |
| AUCCA | 0.993 ± 0.031 | 2 ± 0.13 | 1.95 ± 0.1 | 0.788 ± 0.066 |
| CGUAC | 0.651 ± 0.027 | 1.92 ± 0.093 | 1.75 ± 0.062 | 0.792 ± 0.044 |
| GUCCU | 1.16 ± 0.13 | 2.03 ± 0.052 | 2 ± 0.1 | 1.13 ± 0.12 |
| AAGAC | 0.968 ± 0.16 | 1.91 ± 0.06 | 1.86 ± 0.14 | 0.922 ± 0.12 |
| UCUAU | 0.822 ± 0.091 | 2.051 ± 0.0076 | 1.867 ± 0.015 | 0.994 ± 0.05 |
| CUGAC | 0.906 ± 0.093 | 1.99 ± 0.056 | 1.99 ± 0.11 | 0.902 ± 0.031 |
| CUGCU | 0.644 ± 0.032 | 1.92 ± 0.082 | 1.86 ± 0.062 | 0.658 ± 0.0024 |
| AACCG | 0.924 ± 0.031 | 2 ± 0.031 | 1.89 ± 0.071 | 1.13 ± 0.098 |
| CCGGC | 0.695 ± 0.065 | 2 ± 0.13 | 1.97 ± 0.044 | 0.721 ± 0.011 |
| AAUCC | 0.844 ± 0.012 | 2.04 ± 0.052 | 1.95 ± 0.07 | 0.808 ± 0.05 |
| AAGGG | 0.3836 ± 0.0021 | 1.85 ± 0.028 | 1.75 ± 0.037 | 0.381 ± 0.037 |
| AACCU | 0.83 ± 0.037 | 2.06 ± 0.1 | 1.949 ± 0.017 | 0.698 ± 0.016 |
| AUUGA | 0.66 ± 0.051 | 1.99 ± 0.038 | 1.79 ± 0.08 | 0.85337 ± 0.00081 |
| UACGU | 0.851 ± 0.024 | 2.022 ± 0.012 | 1.92 ± 0.014 | 0.816 ± 0.023 |
| ACUAC | 0.929 ± 0.041 | 1.98 ± 0.093 | 1.98 ± 0.084 | 0.984 ± 0.13 |
| CCACA | 0.241 ± 0.0081 | 1.97 ± 0.022 | 1.75 ± 0.096 | 0.47 ± 0.086 |
| AUGGU | 0.596 ± 0.13 | 2.02 ± 0.032 | 1.78 ± 0.044 | 0.728 ± 0.049 |
| AAGUG | 0.678 ± 0.085 | 1.96 ± 0.04 | 1.79 ± 0.074 | 0.763 ± 0.076 |

| Variant | FACS-Seq fitted mean (log10) (theophylline [1]) | normalized RNA/DNA level with ligand (log10) (theophylline [2]) | normalized RNA/DNA level without ligand (log10) (theophylline [3]) | FACS-Seq fitted mean (log10) (theophylline [4]) |
| --- | --- | --- | --- | --- |
| CCGAU | 0.974 ± 0.065 | 2 ± 0.047 | 1.64 ± 0.11 | 1.06 ± 0.11 |
| UUGAC | 0.872 ± 0.033 | 2.05 ± 0.042 | 1.93 ± 0.075 | 0.849 ± 0.085 |
| CCAAC | 0.72 ± 0.09 | 1.952 ± 0.012 | 1.92 ± 0.069 | 0.767 ± 0.018 |
| AACUC | 0.94 ± 0.044 | 2.01 ± 0.11 | 1.916 ± 0.016 | 0.924 ± 0.031 |
| UCGCA | 0.556 ± 0.006 | 1.96 ± 0.055 | 1.57 ± 0.12 | 0.806 ± 0.091 |
| ACGCG | 1.002 ± 0.0074 | 2.009 ± 0.009 | 1.86 ± 0.036 | 1.09 ± 0.058 |
| AAUAC | 0.997 ± 0.065 | 1.95 ± 0.045 | 1.85 ± 0.084 | 1.061 ± 0.0058 |
| CGUAU | 0.177 ± 0.0091 | 2 ± 0.05 | 1.54 ± 0.11 | 0.491 ± 0.0065 |
| CCUAA | 0.523 ± 0.071 | 1.98 ± 0.04 | 1.71 ± 0.13 | 0.725 ± 0.073 |
| UAUUU | 0.892 ± 0.098 | 1.995 ± 0.0037 | 1.94 ± 0.032 | 0.906 ± 0.048 |
| CAUGA | 0.56151 ± 0.00013 | 2.03 ± 0.064 | 1.69 ± 0.1 | 0.619 ± 0.12 |
| AGGAG | 0.642 ± 0.032 | 1.92 ± 0.022 | 1.73 ± 0.072 | 0.834 ± 0.045 |
| AGAGU | 0.387 ± 0.049 | 2.006 ± 0.008 | 1.58 ± 0.045 | 0.442 ± 0.022 |
| AUGUU | 0.847 ± 0.054 | 1.93 ± 0.068 | 1.87 ± 0.031 | 0.8299 ± 0.0036 |
| AUCGG | 0.827 ± 0.073 | 1.91 ± 0.11 | 1.87 ± 0.051 | 0.782 ± 0.12 |
| AAUAU | -0.0622 ± 0.051 | 1.99 ± 0.083 | 1.75 ± 0.024 | 0.253 ± 0.077 |
| AAAUG | 0.571 ± 0.038 | 2.03 ± 0.022 | 1.75 ± 0.054 | 0.607 ± 0.029 |
